Reference: patent US20250289893A1 (OXFORD UNIVERSITY INNOVATION, published 2025)

B1: 110 (VR12112) (antibody, V domains shown)
VH: QSVEESGGRLVTPGTPLTLTCTVSGFSLSSYAMIWVRQAPGKGLEWIGIINSSDNTHYATWAKGRFTISKTSTTVDLKITSPTTEDTATYFCARDPYDYGYGWYFDLWGPGTLVTVSS
VL: AQVLTQTPSPVSAAVGGTVTINCQASQSVFNNKNLAWYQQKPGQPPKLLIYKASTLASGVSSRFKGSGSGTQFALTISGVQCDDAATYYCQGEFSCSSTDCVTFGGGTEVVVK
notes: also called OX110; antibody 110
B2: 77A (VR11851) (antibody, V domains shown)
VH: QSVEESGGRLVTPGTPLTLTCTVSGFSLSSYAMSWVRQAPGKGLEWIGIISSSGTTYYASWAKGRFTISKTSTTVDLKITSPTTEDTATYFCARVDYYSSGWGGLWGPGTLVTVSS
VL: AVEMTQTPASMSAAVGGTVTIKCQASEDIYSNLAWYQQKPGQPPKLLIYGASTLASGVPSRFKGSGSGTEYTLTISGVQCDDAATYYCQCTYDTSSYGNTFGGGTEMVVE
notes: also called OX77a; antibody 77a
B3: 111 (VR12113) (antibody, V domains shown)
VH: QSVEESGGRLVTPGTPLTLTCTASGFSLSTYAMSWVRQAPGKGLEWIGIISSSGSTYYASWAKGRFTISKTSTTVDLKITSPTTEDTATYFCARETWYWLDLWGQGTLVTVSS
VL: AVEMTQTPASVSAAVGGTVTINCQASEDIYSNLAWYQQKPGQPPKLLIYGASTLASGVPSRFKGSGSGTEYTLTISGVQCDDAATYYCQCAYDSSSYGTPFGGGTEVVVK
notes: also called OX111

Experiments:
[1] = molecular target: T1, human CD1a expressed on cells (human, UniProt P06126 17-327; P61769 21-119); experiment: flow cytometry, C1R cells, 0.1 µg/ml antibody
T1 construct: also called HEK - CD1a; C1R - CD1a
Experimental: (§1) Binding to proteins expressed on HEK, C1R and MOLT4 cell lines was assessed. […] The C1R-CD1a, C1R-empty vector and MOLT4 cell lines were washed in 1×PBS on the day required. All cell lines were counted and resuspended in 1×PBS and then stained for 30 minutes at 37° C. using the DiI or DiO cellular stains (Invitrogen). Cells were washed with flow cytometry buffer (1% bovine serum albumin, 2 mM EDTA and 0.1% sodium azide in PBS) before mixing 2 DiI-stained and DiO-stained populations together. The cells (20 μl/well) were then added to dilutions of antibody sample (B cell culture supernatant, TAP supernatant, clone supernatant, purified antibody solution) (20 μl/well) and incubated for 1 hour at 4° C. in a flow cytometry assay plate, before being washed with flow cytometry buffer. 10 μl/well of Alexafluor647-conjugated goat anti-species IgG Fc-specific F(ab′)2 fragment (Jackson ImmunoResearch), diluted 1:2500 in flow cytometry buffer, was added and incubated at 4° C. for 30 minutes, followed by washing with wash buffer. The fluorescence intensity was then measured on an iQue screener PLUS.
(§2) Binding was quantified as fold change in fluorescence intensity geomean over background assessed by flow cytometry.

[2] = molecular target: T2, chimeric CD1a pool B protein [human CD1a lipid binding domain, mouse CD1d Ig domain] (human; mouse, UniProt P06126 18-201; P11609 205-297, limits assumed); experiment: ELISA, 0.1 µg/ml antibody
Experimental: (§3) CD1a-specific antibodies were identified by ELISA. […] 20 μl/well of peroxidase-conjugated goat anti-species IgG Fc-specific F(ab′)2 fragment (Jackson ImmunoResearch), diluted 1:5000 in block buffer was added and incubated at room temperature for 1 hour, followed by washing with wash buffer.
(§4) The antibodies were titrated through a dilution series and compared to a control rabbit IgG antibody. […] Data shown for purified antibodies.

[3] = molecular target: T3, human CD1a protein (pool B) (human, UniProt P06126 18-295, limits assumed); experiment: ELISA, 0.0316 µg/ml antibody
T3 construct: Recombinant protein of the ELISA (coated) and the Biacore T200 titration; whole entry named; also called human CD1a pool B; full length CD1a
Experimental: as §3
(§5) The antibodies were titrated through a dilution series and compared to a control rabbit IgG antibody.

[4] = molecular target: T1, human CD1a expressed on cells; experiment: flow cytometry, MOLT4 cells, 10 µg/ml antibody
Experimental: (§6) CD1a-specific antibodies were identified by flow cytometry. Binding to proteins expressed on HEK, C1R and MOLT4 cell lines was assessed. […] The C1R-CD1a, C1R-empty vector and MOLT4 cell lines were washed in 1×PBS on the day required. All cell lines were counted and resuspended in 1×PBS and then stained for 30 minutes at 37° C. using the DiI or DiO cellular stains (Invitrogen). Cells were washed with flow cytometry buffer (1% bovine serum albumin, 2 mM EDTA and 0.1% sodium azide in PBS) before mixing 2 DiI-stained and DiO-stained populations together. The cells (20 μl/well) were then added to dilutions of antibody sample (B cell culture supernatant, TAP supernatant, clone supernatant, purified antibody solution) (20 μl/well) and incubated for 1 hour at 4° C. in a flow cytometry assay plate, before being washed with flow cytometry buffer. 10 μl/well of Alexafluor647-conjugated goat anti-species IgG Fc-specific F(ab′)2 fragment (Jackson ImmunoResearch), diluted 1:2500 in flow cytometry buffer, was added and incubated at 4° C. for 30 minutes, followed by washing with wash buffer. The fluorescence intensity was then measured on an iQue screener PLUS.
as §2

[5] = molecular target: T1, human CD1a expressed on cells; experiment: flow cytometry, MOLT4 cells, 31.6 µg/ml antibody
Experimental: as §6, §2

[6] = molecular target: T2, chimeric CD1a pool B protein [human …; experiment: ELISA, 0.0316 µg/ml antibody
Experimental: as §3, §4

[7] = molecular target: T1, human CD1a expressed on cells; experiment: flow cytometry, HEK-293 cells, 0.1 µg/ml antibody
Experimental: as §1
(§7) HEK-293 cells were transiently transfected with human CD1a, CD1b, CD1c or CD1d and co-transfected with human β2M.

[8] = molecular target: T4, human CD1c expressed on HEK-293 cells (human, UniProt P29017 18-333; P61769 21-119); experiment: flow cytometry, HEK-293 cells, 0.1 µg/ml antibody
T4 construct: also called HEK - CD1c
Experimental: as §1, §7

[9] = molecular target: T5, human CD1d expressed on HEK-293 cells (human, UniProt P15813 20-335; P61769 21-119); experiment: flow cytometry, HEK-293 cells, 0.1 µg/ml antibody
T5 construct: also called HEK - CD1d
Experimental: as §1, §7

[10] = molecular target: T6, human CD1b expressed on HEK-293 cells (human, UniProt P29016 18-333; P61769 21-119); experiment: flow cytometry, HEK-293 cells, 0.1 µg/ml antibody
T6 construct: also called HEK - CD1b
Experimental: as §1, §7

[11] = molecular target: T1, human CD1a expressed on cells; experiment: flow cytometry, HEK-293 cells, 31.6 µg/ml antibody
Experimental: as §1, §7

[12] = molecular target: T4, human CD1c expressed on HEK-293 cells; experiment: flow cytometry, HEK-293 cells, 31.6 µg/ml antibody
Experimental: as §1, §7

[13] = molecular target: T5, human CD1d expressed on HEK-293 cells; experiment: flow cytometry, HEK-293 cells, 31.6 µg/ml antibody
Experimental: as §1, §7

[14] = molecular target: T6, human CD1b expressed on HEK-293 cells; experiment: flow cytometry, HEK-293 cells, 31.6 µg/ml antibody
Experimental: as §1, §7

[15] = molecular target: T1, human CD1a expressed on cells; experiment: flow cytometry, C1R cells, 3.16 µg/ml antibody
Experimental: as §1, §2

[16] = molecular target: T2, chimeric CD1a pool B protein [human …; experiment: ELISA, 10 µg/ml antibody
Experimental: as §3, §4

[17] = molecular target: T1, human CD1a expressed on cells; experiment: flow cytometry, HEK-293 cells, 0.0316 µg/ml antibody
Experimental: as §1, §7

[18] = molecular target: T4, human CD1c expressed on HEK-293 cells; experiment: as above
Experimental: as §1, §7

[19] = molecular target: T5, human CD1d expressed on HEK-293 cells; experiment: as above
Experimental: as §1, §7

[20] = molecular target: T6, human CD1b expressed on HEK-293 cells; experiment: as above
Experimental: as §1, §7

[21] = molecular target: T3, human CD1a protein (pool B); experiment: ELISA, 10 µg/ml antibody
Experimental: as §3, §5

[22] = molecular target: T3, human CD1a protein (pool B); experiment: ELISA, 31.6 µg/ml antibody
Experimental: as §3, §5

[23] = molecular target: T1, human CD1a expressed on cells; experiment: flow cytometry, MOLT4 cells, 0.316 µg/ml antibody
Experimental: as §6, §2

[24] = molecular target: Chinese variant CD1a protein (human) (UniProt P06126); experiment: ELISA, 0.01 µg/ml antibody
[25] = molecular target: T1, human CD1a expressed on cells; experiment: flow cytometry, C1R cells, 10 µg/ml antibody
Experimental: as §1, §2

[26] = molecular target: Cynomolgus monkey CD1a expressed on HEK-293 cells (Cynomolgus monkey, UniProt A0A2K5VQ68 17-326); experiment: flow cytometry, HEK-293 cells, 1 µg/ml antibody
Experimental: as §1, §2

[27] = molecular target: T3, human CD1a protein (pool B); experiment: ELISA, 0.1 µg/ml antibody
Experimental: as §3, §5

T2 sequence (P06126 other isoform, or with tags, fused parts or gaps mutant limits assumed): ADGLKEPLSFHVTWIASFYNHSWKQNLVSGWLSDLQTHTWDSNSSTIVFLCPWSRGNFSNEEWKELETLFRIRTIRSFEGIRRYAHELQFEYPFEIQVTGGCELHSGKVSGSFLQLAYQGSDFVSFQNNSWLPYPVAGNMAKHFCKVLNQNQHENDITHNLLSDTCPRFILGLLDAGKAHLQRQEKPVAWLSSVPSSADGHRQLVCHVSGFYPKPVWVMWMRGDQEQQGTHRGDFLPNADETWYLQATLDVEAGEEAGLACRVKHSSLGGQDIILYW
T3 sequence (P06126 18-295 limits assumed): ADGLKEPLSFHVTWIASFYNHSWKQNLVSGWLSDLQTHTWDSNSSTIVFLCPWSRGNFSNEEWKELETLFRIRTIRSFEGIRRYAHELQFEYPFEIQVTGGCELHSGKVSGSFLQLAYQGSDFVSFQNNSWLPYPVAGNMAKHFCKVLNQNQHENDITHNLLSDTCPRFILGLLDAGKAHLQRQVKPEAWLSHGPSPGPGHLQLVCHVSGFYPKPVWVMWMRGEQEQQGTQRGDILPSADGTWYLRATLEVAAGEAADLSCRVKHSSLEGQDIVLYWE
Chinese variant CD1a protein (human), sequence (P06126 18-295, stated change not applied): as the sequence (P06126 18-295 limits assumed) above
Cynomolgus monkey CD1a expressed on HEK-293 cells, sequence (A0A2K5VQ68 entry or part of it): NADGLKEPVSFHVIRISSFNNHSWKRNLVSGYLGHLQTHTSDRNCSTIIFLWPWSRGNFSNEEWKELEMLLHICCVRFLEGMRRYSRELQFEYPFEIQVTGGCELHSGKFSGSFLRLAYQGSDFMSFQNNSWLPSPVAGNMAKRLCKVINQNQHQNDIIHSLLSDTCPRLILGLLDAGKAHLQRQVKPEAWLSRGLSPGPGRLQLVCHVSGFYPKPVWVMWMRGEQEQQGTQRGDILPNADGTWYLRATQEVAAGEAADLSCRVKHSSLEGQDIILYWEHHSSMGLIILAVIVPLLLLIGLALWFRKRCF

Row | Binder | Fluorescence Intensity Geomean (normalized to background) [1] [fold over background] | Optical Density (OD) [2] [OD] | Optical Density (OD) [3] [OD] | Fluorescence Intensity Geomean (normalized to background) [4] [fold over background] | Fluorescence Intensity Geomean (normalized to background) [5] [fold over background] | Optical Density (OD) [6] [OD] | Fluorescence Intensity Geomean (normalized to background) [7] [fold over background] | Fluorescence Intensity Geomean (normalized to background) [8] [fold over background] | Fluorescence Intensity Geomean (normalized to background) [9] [fold over background] | Fluorescence Intensity Geomean (normalized to background) [10] [fold over background] | Fluorescence Intensity Geomean (normalized to background) [11] [fold over background] | Fluorescence Intensity Geomean (normalized to background) [12] [fold over background] | Fluorescence Intensity Geomean (normalized to background) [13] [fold over background] | Fluorescence Intensity Geomean (normalized to background) [14] [fold over background] | Fluorescence Intensity Geomean (normalized to background) [15] [fold over background] | Optical Density (OD) [16] [OD] | Fluorescence Intensity Geomean (normalized to background) [17] [fold over background] | Fluorescence Intensity Geomean (normalized to background) [18] [fold over background] | Fluorescence Intensity Geomean (normalized to background) [19] [fold over background] | Fluorescence Intensity Geomean (normalized to background) [20] [fold over background] | also measured
1 | B1 | 25.8 | 1.02 | 0.81 | 14.7 | 7.5 | 0.73 | 20.2 | 1 | 1 | 1 | 10.9 | 1 | 1.1 | 1.1 | 15.2 | 1.46 | 8.9 | 1 | 1 | 1 | Optical Density (OD) [21]: 1.28 OD; Optical Density (OD) [22]: 1.24 OD; Fluorescence Intensity Geomean (normalized to background) [23]: 27.1 fold over background; Optical Density (OD) [24]: 1.4 OD; Fluorescence Intensity Geomean (normalized to background) [25]: 8.3 fold over background
2 | B2 | 16.4 | 1.25 | 1.25 | 4.1 | 2.2 | 1.09 | 43.8 | 0.9 | 0.9 | 1 | 8.2 | 0.9 | 1 | 1 | 4.2 | 1.31 | 24.9 | 1 | 0.9 | 0.9 | Fluorescence Intensity Geomean (normalized to background) [26]: 10.6 fold over background; Optical Density (OD) [27]: 1.36 OD; Optical Density (OD) [21]: 1.34 OD; Optical Density (OD) [22]: 1.28 OD; Fluorescence Intensity Geomean (normalized to background) [23]: 15.2 fold over background; Optical Density (OD) [24]: 0.79 OD; Fluorescence Intensity Geomean (normalized to background) [25]: 2.3 fold over background
3 | B3 | 25.4 | 1.25 | 1.1 | 9.3 | 5.4 | 1.19 | 23.1 | 1 | 1 | 1 | 6.3 | 1 | 1 | 1 | 15.6 | 1.4 | 11.1 | 1 | 1 | 1 | Fluorescence Intensity Geomean (normalized to background) [26]: 12.9 fold over background; Optical Density (OD) [27]: 1.06 OD; Optical Density (OD) [21]: 1.12 OD; Optical Density (OD) [22]: 1.07 OD; Fluorescence Intensity Geomean (normalized to background) [23]: 27.3 fold over background; Optical Density (OD) [24]: 1.33 OD; Fluorescence Intensity Geomean (normalized to background) [25]: 11.7 fold over background
